This test deals with CC-chemokine receptor type 7 (CCR7) (UniProt P32248). Description: cell-based or functional assay.
UniProt P32248, sequence (P32248 25-378 limits assumed): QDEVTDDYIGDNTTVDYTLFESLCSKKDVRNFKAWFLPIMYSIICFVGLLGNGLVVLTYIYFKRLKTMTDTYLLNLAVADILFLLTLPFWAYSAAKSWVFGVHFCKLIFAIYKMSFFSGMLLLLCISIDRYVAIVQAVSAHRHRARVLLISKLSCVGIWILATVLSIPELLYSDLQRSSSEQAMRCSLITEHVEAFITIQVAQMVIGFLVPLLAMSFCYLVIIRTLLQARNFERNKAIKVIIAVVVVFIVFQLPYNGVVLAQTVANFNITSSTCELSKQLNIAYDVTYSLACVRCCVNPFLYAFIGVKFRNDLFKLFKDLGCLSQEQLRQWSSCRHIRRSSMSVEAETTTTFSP

In the case of “commercial CCL21 antigen (from UniProt O00585 24-134) (ligand)”, the Cells in the well of absorbent material (chemotaxis of PBMCs, agarose assay) is 170 cells; the Chemotaxis percentage (PBMCs, agarose assay) is 90%; the Chemotaxis rate (PBMCs, agarose assay) was 153 cells; the cancer cell migration after 72 hours, wound healing assay came to 90%. The survival of MCF7 cancer cells, MTT assay, 7.5 µg/ml was 33%.

The values are drawn from patent publication US20230322879A1.
